The supplement of paper PMC9170038

Tested on: K4 kissing-loop RNA reporter
Assay: apparent KD of K4 kissing-loop reporter; higher = weaker reporter binding
Conditions: Eterna round: R107
Method: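 RNA-MaP round R107: designed RNA switches with theophylline, tryptophan, arginine or FMN aptamers are transcribed on-chip within common flanks. They are titrated with a labelled K4 kissing-loop RNA reporter in RNA-MaP buffer (100 mM Tris pH 7.5, 80 mM KCl, 4 mM MgCl2), without ligand or with the indicated ligand. Median apparent KD per design.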

[1] = input ligand: theophylline 20 uM
[2] = input ligand: tryptophan 2.4 mM
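Note: bound reporter read as fluorescence of individual clusters on recovered sequencing chips by microscopy, with normalized cluster intensities fitted with a binding model.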

Sequence	apparent KD of K4 kissing-loop reporter (input ligand: FMN 200 uM)	apparent KD of K4 kissing-loop reporter (input ligand: arginine 13.2 mM)	apparent KD of K4 kissing-loop reporter (input ligand: none)	apparent KD of K4 kissing-loop reporter [1]	apparent KD of K4 kissing-loop reporter [2]
AAAAUAAACCAGUGAUGUUGGUAUCCAGAUACCAGCGACGAAAGUCGCCCUUGGCAGCUGUGGACGUACAAAAUAAGUACGUCCU	0.93 µM	0.619 µM	0.894 µM	0.746 µM	0.714 µM
AAAAUAAAGGAGUGAUGUUCCAUAACGGAUACCAGCCACGAAAGUGGCCCUUGGCAGCUGUGCCAGUGGACGAAUAACGUCCACA [#OpenEnded 6 #StaticStem #K4Early]	0.164 µM	0.287 µM	0.237 µM	0.28 µM	0.164 µM
AAAAUAAAUAGCAGUCAUGGAGUGAUGUUCCGAGGACCGGUACGGCCGCCACUCGACCAUCAUAAGAUGGAUGGCGAAGACUGCA [#SwitchBubble 24 #K4Early]	0.515 µM	0.544 µM	0.483 µM	0.445 µM	0.864 µM
AAAAUAACCCAGUGAUGUUGGUAUACAGAUACCAGCGACGAAAGUCGCCCUUGGCAGCUGUGGACGUACAAAAUAAGUACGUCCU	0.986 µM	0.705 µM	1.12 µM	0.902 µM	1.01 µM
AAAAUAAGCCAGUGAUGUUGGUAUGCAGAUACCAGCGACGAAAGUCGCCCUUGGCAGCUGUGGACGUACAAAAUAAGUACGUCCU	0.253 µM	0.109 µM	0.329 µM	0.331 µM	0.179 µM
AAACAUCACUGGGAGUGAUGUUCUCAGUGACGAGGACCGGUACGGCCGCCACUCGCGAGAGAUUUAGUCUAGUCUUGACUGCAUU [Excl Tryptophan A V12]	0.299 µM	0.303 µM	0.264 µM	0.372 µM	0.331 µM
AAACAUUGGUGCGAUACCAGCUGAUCGGAAACGAUCAUGCUGGAGUGAUGUUCCAGGAAAAGCCCUUGGCAGCGCACCGAUGAAA [MAT - Same State Theophlline B - Mod of Eli - D29]	0.128 µM	0.0798 µM	0.0785 µM	0.275 µM	0.0959 µM
AAACGUUGGUCGGAUACCAGCUUGAUCGGAAACGAUCUGCUGGAGUGAUGUUCCAAGUAAAGCCCUUGGCAGCCGACCGACGAAA [MAT - Same State Theophlline B - Mod of Eli - D18]	0.148 µM	0.0651 µM	0.0994 µM	0.0954 µM	0.0716 µM
AAACGUUGGUGCGAUACCAGCUGGUCGGAAACGACCUUGCUGGAGUGAUGUUCCAAGUAAAGCCCUUGGCAGCGCACCGACGAAA [MAT - Same State Theophlline B - Mod of Eli - D23]	0.122 µM	0.0536 µM	0.0432 µM	0.135 µM	0.0939 µM
AAAGUUGAAAGUGAUACCAGACGAGUGAAGGGAAGUAAUUAAUUUGGAGUGAUGUUCCGCGUCCCUUGGCAGCAUUUUGUAAUUU [Exclusion Theophylline B GF 24]	0.166 µM	0.195 µM	0.189 µM	0.186 µM	0.153 µM
AAAUAAAGCAGUCACCCAGUGAUGUUGGAAGGAGCGUGCGAAAGCACAGGUAGGUCGCCGAUAAGGACAAAGUCCAGUGGCUGCA [#SwitchBubble 28 #K4Early]	0.458 µM	0.344 µM	0.595 µM	0.59 µM	0.283 µM
AAAUAGAUCAGUCACCCAGUGAUGUUGGAAGGAGCGUGCGAAAGCACAGGUAGGUCGCCAGAAUAAAAGUGGCUGAUCAAAAUAA	0.512 µM	0.358 µM	0.519 µM	0.513 µM	0.366 µM
AAAUAGAUCAGUCACCCAGUGAUGUUGGAAGGAGCGUGCGAAAGCACAGGUAGGUCGCCAUAAUAAAAGUGGCUGAUCAAAAUAA	0.446 µM	0.287 µM	0.487 µM	0.534 µM	0.31 µM
AAAUUUAUAUUAGAUACCAGCAUUUUGAAUGUUUAUUAUGACAAGAGUGAUGUUCUUGUAUGCCCUUGGCAGCUGGUAUGGGUUU [KL-XTheo-B24]	0.123 µM	0.115 µM	0.136 µM	0.12 µM	0.125 µM
